Laboratory results published in patent US20240117334A1 (VERTEX PHARMACEUTICALS, published 2024).
Values joined by “and” are separate entries in the source; they are usually repeats but may differ in a detail not shown here. Equal values may be shown once.

T1: Plasma antichymotrypsin (ACT) (UniProt P01011 24-423)
T1 construct: also called plasma ACT
T1 sequence (looked up): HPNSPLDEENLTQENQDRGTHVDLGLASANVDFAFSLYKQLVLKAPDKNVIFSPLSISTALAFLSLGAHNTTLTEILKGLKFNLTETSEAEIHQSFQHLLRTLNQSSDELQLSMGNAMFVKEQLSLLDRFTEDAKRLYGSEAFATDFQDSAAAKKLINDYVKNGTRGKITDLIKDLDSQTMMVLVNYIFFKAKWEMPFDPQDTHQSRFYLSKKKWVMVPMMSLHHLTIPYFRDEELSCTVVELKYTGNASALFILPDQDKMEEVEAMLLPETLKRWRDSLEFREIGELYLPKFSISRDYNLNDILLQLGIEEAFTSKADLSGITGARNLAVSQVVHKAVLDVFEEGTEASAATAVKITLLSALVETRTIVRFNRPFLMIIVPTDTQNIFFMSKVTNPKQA

B1: chymase C22S/K40L/F41K/L99N/F173Y/S218L/A226R (enzyme)
chain: IIGGTESKPHSRPYMAYLEIVTSNGPSLKCGGFLIRRNFVLTAAHCAGRSITVTLGAHNITEEEDTWQKLEVIKQFRHPKYNTSTNHHDIMLLKLKEKASLTLAVGTLPFPSQFNFVPPGRMCRVAGWGRTGVLKPGSDTLQEVKLRLMDPQACSHYRDFDHNLQLCVGNPRKTKSAFKGDSGGPLLCAGVAQGIVSYGRLDAKPPRVFTRISHYRPWINQILQAN
B2: chymase F41V/L99H/G151V/F173Y/Y215K/R217G/A226R (enzyme)
chain: IIGGTECKPHSRPYMAYLEIVTSNGPSKVCGGFLIRRNFVLTAAHCAGRSITVTLGAHNITEEEDTWQKLEVIKQFRHPKYNTSTHHHDIMLLKLKEKASLTLAVGTLPFPSQFNFVPPGRMCRVAGWGRTGVLKPVSDTLQEVKLRLMDPQACSHYRDFDHNLQLCVGNPRKTKSAFKGDSGGPLLCAGVAQGIVSKGGSDAKPPRVFTRISHYRPWINQILQAN
B3: chymase C22S/F41V/L99W/G151L/F173K/R217S/A226R (enzyme)
chain: IIGGTESKPHSRPYMAYLEIVTSNGPSKVCGGFLIRRNFVLTAAHCAGRSITVTLGAHNITEEEDTWQKLEVIKQFRHPKYNTSTWHHDIMLLKLKEKASLTLAVGTLPFPSQFNFVPPGRMCRVAGWGRTGVLKPLSDTLQEVKLRLMDPQACSHKRDFDHNLQLCVGNPRKTKSAFKGDSGGPLLCAGVAQGIVSYGSSDAKPPRVFTRISHYRPWINQILQAN
B4: chymase C22S/F41R/L99Y/G151T/F173K/R217S/A226R (enzyme)
chain: IIGGTESKPHSRPYMAYLEIVTSNGPSKRCGGFLIRRNFVLTAAHCAGRSITVTLGAHNITEEEDTWQKLEVIKQFRHPKYNTSTYHHDIMLLKLKEKASLTLAVGTLPFPSQFNFVPPGRMCRVAGWGRTGVLKPTSDTLQEVKLRLMDPQACSHKRDFDHNLQLCVGNPRKTKSAFKGDSGGPLLCAGVAQGIVSYGSSDAKPPRVFTRISHYRPWINQILQAN
B5: chymase C22S/L99H/F173I/K192R/Y215K/R217T/S218I/A226R (enzyme)
chain: IIGGTESKPHSRPYMAYLEIVTSNGPSKFCGGFLIRRNFVLTAAHCAGRSITVTLGAHNITEEEDTWQKLEVIKQFRHPKYNTSTHHHDIMLLKLKEKASLTLAVGTLPFPSQFNFVPPGRMCRVAGWGRTGVLKPGSDTLQEVKLRLMDPQACSHIRDFDHNLQLCVGNPRKTKSAFRGDSGGPLLCAGVAQGIVSKGTIDAKPPRVFTRISHYRPWINQILQAN
B6: chymase C22S/F41R/L99H/G151T/F173Y/Y215K/R217M/A226R (enzyme)
chain: IIGGTESKPHSRPYMAYLEIVTSNGPSKRCGGFLIRRNFVLTAAHCAGRSITVTLGAHNITEEEDTWQKLEVIKQFRHPKYNTSTHHHDIMLLKLKEKASLTLAVGTLPFPSQFNFVPPGRMCRVAGWGRTGVLKPTSDTLQEVKLRLMDPQACSHYRDFDHNLQLCVGNPRKTKSAFKGDSGGPLLCAGVAQGIVSKGMSDAKPPRVFTRISHYRPWINQILQAN
B7: chymase C22S/F41R/L99G/G151T/F173Y/Y215R/R217M/A226R (enzyme)
chain: IIGGTESKPHSRPYMAYLEIVTSNGPSKRCGGFLIRRNFVLTAAHCAGRSITVTLGAHNITEEEDTWQKLEVIKQFRHPKYNTSTGHHDIMLLKLKEKASLTLAVGTLPFPSQFNFVPPGRMCRVAGWGRTGVLKPTSDTLQEVKLRLMDPQACSHYRDFDHNLQLCVGNPRKTKSAFKGDSGGPLLCAGVAQGIVSRGMSDAKPPRVFTRISHYRPWINQILQAN
B8: chymase C22S/L99Y/F173Y/K192R/S218L/A226R (enzyme)
chain: IIGGTESKPHSRPYMAYLEIVTSNGPSKFCGGFLIRRNFVLTAAHCAGRSITVTLGAHNITEEEDTWQKLEVIKQFRHPKYNTSTYHHDIMLLKLKEKASLTLAVGTLPFPSQFNFVPPGRMCRVAGWGRTGVLKPGSDTLQEVKLRLMDPQACSHYRDFDHNLQLCVGNPRKTKSAFRGDSGGPLLCAGVAQGIVSYGRLDAKPPRVFTRISHYRPWINQILQAN
B9: chymase C22S/F41V/L99F/G151R/F173K/R217S/A226R (enzyme)
chain: IIGGTESKPHSRPYMAYLEIVTSNGPSKVCGGFLIRRNFVLTAAHCAGRSITVTLGAHNITEEEDTWQKLEVIKQFRHPKYNTSTFHHDIMLLKLKEKASLTLAVGTLPFPSQFNFVPPGRMCRVAGWGRTGVLKPRSDTLQEVKLRLMDPQACSHKRDFDHNLQLCVGNPRKTKSAFKGDSGGPLLCAGVAQGIVSYGSSDAKPPRVFTRISHYRPWINQILQAN
B10: chymase C22S/L99H/F173Y/K192R/S218L/A226R (enzyme)
chain: IIGGTESKPHSRPYMAYLEIVTSNGPSKFCGGFLIRRNFVLTAAHCAGRSITVTLGAHNITEEEDTWQKLEVIKQFRHPKYNTSTHHHDIMLLKLKEKASLTLAVGTLPFPSQFNFVPPGRMCRVAGWGRTGVLKPGSDTLQEVKLRLMDPQACSHYRDFDHNLQLCVGNPRKTKSAFRGDSGGPLLCAGVAQGIVSYGRLDAKPPRVFTRISHYRPWINQILQAN
B11: chymase C22S/K192R/A226R (enzyme)
chain: IIGGTESKPHSRPYMAYLEIVTSNGPSKFCGGFLIRRNFVLTAAHCAGRSITVTLGAHNITEEEDTWQKLEVIKQFRHPKYNTSTLHHDIMLLKLKEKASLTLAVGTLPFPSQFNFVPPGRMCRVAGWGRTGVLKPGSDTLQEVKLRLMDPQACSHFRDFDHNLQLCVGNPRKTKSAFRGDSGGPLLCAGVAQGIVSYGRSDAKPPRVFTRISHYRPWINQILQAN
B12: chymase C22S/F41V/L99H/G151R/F173L/Y215R/R217T/A226R (enzyme)
chain: IIGGTESKPHSRPYMAYLEIVTSNGPSKVCGGFLIRRNFVLTAAHCAGRSITVTLGAHNITEEEDTWQKLEVIKQFRHPKYNTSTHHHDIMLLKLKEKASLTLAVGTLPFPSQFNFVPPGRMCRVAGWGRTGVLKPRSDTLQEVKLRLMDPQACSHLRDFDHNLQLCVGNPRKTKSAFKGDSGGPLLCAGVAQGIVSRGTSDAKPPRVFTRISHYRPWINQILQAN
B13: chymase C22S/F41I/L99W/G151L/F173K/R217S/A226R (enzyme)
chain: IIGGTESKPHSRPYMAYLEIVTSNGPSKICGGFLIRRNFVLTAAHCAGRSITVTLGAHNITEEEDTWQKLEVIKQFRHPKYNTSTWHHDIMLLKLKEKASLTLAVGTLPFPSQFNFVPPGRMCRVAGWGRTGVLKPLSDTLQEVKLRLMDPQACSHKRDFDHNLQLCVGNPRKTKSAFKGDSGGPLLCAGVAQGIVSYGSSDAKPPRVFTRISHYRPWINQILQAN
B14: chymase C22S/L99H/F173L/K192R/Y215H/R217T/S218V/A226R (enzyme)
chain: IIGGTESKPHSRPYMAYLEIVTSNGPSKFCGGFLIRRNFVLTAAHCAGRSITVTLGAHNITEEEDTWQKLEVIKQFRHPKYNTSTHHHDIMLLKLKEKASLTLAVGTLPFPSQFNFVPPGRMCRVAGWGRTGVLKPGSDTLQEVKLRLMDPQACSHLRDFDHNLQLCVGNPRKTKSAFRGDSGGPLLCAGVAQGIVSHGTVDAKPPRVFTRISHYRPWINQILQAN
B15: chymase C22S/A190S/A226R (enzyme)
chain: IIGGTESKPHSRPYMAYLEIVTSNGPSKFCGGFLIRRNFVLTAAHCAGRSITVTLGAHNITEEEDTWQKLEVIKQFRHPKYNTSTLHHDIMLLKLKEKASLTLAVGTLPFPSQFNFVPPGRMCRVAGWGRTGVLKPGSDTLQEVKLRLMDPQACSHFRDFDHNLQLCVGNPRKTKSSFKGDSGGPLLCAGVAQGIVSYGRSDAKPPRVFTRISHYRPWINQILQAN
B16: chymase C22S/K40L/F41H/L99N/F173Y/D175N/S218L/A226R (enzyme)
chain: IIGGTESKPHSRPYMAYLEIVTSNGPSLHCGGFLIRRNFVLTAAHCAGRSITVTLGAHNITEEEDTWQKLEVIKQFRHPKYNTSTNHHDIMLLKLKEKASLTLAVGTLPFPSQFNFVPPGRMCRVAGWGRTGVLKPGSDTLQEVKLRLMDPQACSHYRNFDHNLQLCVGNPRKTKSAFKGDSGGPLLCAGVAQGIVSYGRLDAKPPRVFTRISHYRPWINQILQAN
notes: also called MS No. 16
B17: chymase C22S/F173Y/D175N/A226R (enzyme)
chain: IIGGTESKPHSRPYMAYLEIVTSNGPSKFCGGFLIRRNFVLTAAHCAGRSITVTLGAHNITEEEDTWQKLEVIKQFRHPKYNTSTLHHDIMLLKLKEKASLTLAVGTLPFPSQFNFVPPGRMCRVAGWGRTGVLKPGSDTLQEVKLRLMDPQACSHYRNFDHNLQLCVGNPRKTKSAFKGDSGGPLLCAGVAQGIVSYGRSDAKPPRVFTRISHYRPWINQILQAN
notes: also called MS No. 18
B18: chymase C22S (enzyme)
chain: IIGGTESKPHSRPYMAYLEIVTSNGPSKFCGGFLIRRNFVLTAAHCAGRSITVTLGAHNITEEEDTWQKLEVIKQFRHPKYNTSTLHHDIMLLKLKEKASLTLAVGTLPFPSQFNFVPPGRMCRVAGWGRTGVLKPGSDTLQEVKLRLMDPQACSHFRDFDHNLQLCVGNPRKTKSAFKGDSGGPLLCAGVAQGIVSYGRSDAKPPAVFTRISHYRPWINQILQAN
notes: For all chymase variants: mutation names are in chymotrypsin numbering
B19: chymase C22S/P38Q/V138I/V183I/L199V/A226R/F228V (enzyme)
chain: IIGGTESKPHSRPYMAYLEIVTSNGQSKFCGGFLIRRNFVLTAAHCAGRSITVTLGAHNITEEEDTWQKLEVIKQFRHPKYNTSTLHHDIMLLKLKEKASLTLAVGTLPFPSQFNFVPPGRMCRIAGWGRTGVLKPGSDTLQEVKLRLMDPQACSHFRDFDHNLQLCIGNPRKTKSAFKGDSGGPVLCAGVAQGIVSYGRSDAKPPRVVTRISHYRPWINQILQAN
B20: chymase C22S/A226R (enzyme)
chain: IIGGTESKPHSRPYMAYLEIVTSNGPSKFCGGFLIRRNFVLTAAHCAGRSITVTLGAHNITEEEDTWQKLEVIKQFRHPKYNTSTLHHDIMLLKLKEKASLTLAVGTLPFPSQFNFVPPGRMCRVAGWGRTGVLKPGSDTLQEVKLRLMDPQACSHFRDFDHNLQLCVGNPRKTKSAFKGDSGGPLLCAGVAQGIVSYGRSDAKPPRVFTRISHYRPWINQILQAN

Legend:
Human Factor B = Human Factor B (human, UniProt P00751 26-764); assay: cell-based or functional assay
[1] = target: T1, Plasma antichymotrypsin (ACT); assay: serpin inhibition of the protease

Chain of Human Factor B (P00751 26-764 limits assumed): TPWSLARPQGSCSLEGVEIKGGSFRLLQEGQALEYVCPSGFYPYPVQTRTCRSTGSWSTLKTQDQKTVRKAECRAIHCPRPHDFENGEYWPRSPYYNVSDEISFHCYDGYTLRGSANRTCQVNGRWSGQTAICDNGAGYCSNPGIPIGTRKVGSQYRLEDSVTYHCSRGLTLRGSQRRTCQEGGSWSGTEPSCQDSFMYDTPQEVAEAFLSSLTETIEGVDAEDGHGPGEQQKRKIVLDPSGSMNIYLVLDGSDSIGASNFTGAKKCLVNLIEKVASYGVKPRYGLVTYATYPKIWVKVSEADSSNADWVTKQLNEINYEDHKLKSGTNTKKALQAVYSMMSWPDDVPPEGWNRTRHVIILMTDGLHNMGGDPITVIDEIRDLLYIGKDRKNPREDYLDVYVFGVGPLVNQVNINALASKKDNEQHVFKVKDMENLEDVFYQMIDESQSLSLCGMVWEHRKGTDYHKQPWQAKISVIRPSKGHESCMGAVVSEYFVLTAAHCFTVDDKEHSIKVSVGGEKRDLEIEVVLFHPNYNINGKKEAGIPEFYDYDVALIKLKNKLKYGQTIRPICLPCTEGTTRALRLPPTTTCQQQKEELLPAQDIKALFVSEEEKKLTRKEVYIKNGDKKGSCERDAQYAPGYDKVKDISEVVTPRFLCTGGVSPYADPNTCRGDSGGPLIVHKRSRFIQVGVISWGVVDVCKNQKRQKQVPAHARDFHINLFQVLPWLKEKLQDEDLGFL

Row | Binder | kapp [1] [M⁻¹ s⁻¹] | fB Cleavage EC50 (Human Factor B) | other results
1 | B1 | 197 | – | fB Cleavage, 80% plasma EC50 (Human Factor B): 14 µM
2 | B2 | – | 7.77 µM | –
3 | B3 | – | 1.94 µM | –
4 | B4 | – | 3.45 µM | –
5 | B5 | – | 5.62 µM | –
6 | B6 | – | 1.69 µM | –
7 | B7 | – | 4.33 µM | –
8 | B8 | – | 1.02 µM | –
9 | B9 | – | 3.65 µM | –
10 | B10 | – | 1.15 µM | –
11 | B11 | – | 6.37 µM | –
12 | B12 | – | 8.06 µM | –
13 | B13 | – | 1.74 µM | –
14 | B14 | – | 7.77 µM and 2.74 µM | –
15 | B15 | 1600 | 0.407 µM | –
16 | B16 | 40 | 0.139 µM | fB Cleavage, 80% plasma EC50 (Human Factor B): 5.07 µM
17 | B17 | 428 | – | fB Cleavage, 64% A2M-depl plasma EC50 (Human Factor B): 1.65 µM; fB Cleavage, 80% plasma EC50 (Human Factor B): 11.2 µM
18 | B18 | 31200 | 0.265 µM | fB Cleavage, 64% A2M-depl plasma EC50 (Human Factor B): 1.52 µM; fB Cleavage, 64% plasma EC50 (Human Factor B): 7.88 µM; fB Cleavage, 80% plasma EC50 (Human Factor B): 10.2 µM
19 | B19 | 269 | – | –
20 | B20 | 1040 | 5.21 µM | –
